This passage reports binding result and % normalized signal (GPRPFPAC-coated wells = 100 %), saturated wells results from PMC3925836 (Advanced healthcare materials, 2013).

Changes are numbered by the printed parent chain.

Data set [1] concerns the molecule itself. The data set is described as follows: dynamic light scattering.
Data set [2] deals with T1, GPSP-P40-I60.
T1 chain: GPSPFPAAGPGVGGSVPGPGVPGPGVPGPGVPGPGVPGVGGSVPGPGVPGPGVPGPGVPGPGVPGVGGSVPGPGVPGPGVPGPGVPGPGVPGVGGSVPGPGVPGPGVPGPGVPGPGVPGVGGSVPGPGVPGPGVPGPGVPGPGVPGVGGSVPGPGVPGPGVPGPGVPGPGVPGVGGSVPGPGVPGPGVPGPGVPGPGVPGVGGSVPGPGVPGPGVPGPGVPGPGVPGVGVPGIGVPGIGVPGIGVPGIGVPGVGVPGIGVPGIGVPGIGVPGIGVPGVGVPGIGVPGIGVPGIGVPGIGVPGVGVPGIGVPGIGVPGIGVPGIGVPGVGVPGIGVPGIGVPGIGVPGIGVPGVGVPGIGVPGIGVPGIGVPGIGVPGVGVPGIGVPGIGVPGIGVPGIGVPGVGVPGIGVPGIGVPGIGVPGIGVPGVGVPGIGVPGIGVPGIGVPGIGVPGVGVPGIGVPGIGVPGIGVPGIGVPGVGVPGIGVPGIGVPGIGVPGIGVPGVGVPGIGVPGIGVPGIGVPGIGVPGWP
Kind of data set: SYPRO Orange thermal transition assay.

Data set [3] addresses T2, GPRP-A80-I60-C.
T2 chain: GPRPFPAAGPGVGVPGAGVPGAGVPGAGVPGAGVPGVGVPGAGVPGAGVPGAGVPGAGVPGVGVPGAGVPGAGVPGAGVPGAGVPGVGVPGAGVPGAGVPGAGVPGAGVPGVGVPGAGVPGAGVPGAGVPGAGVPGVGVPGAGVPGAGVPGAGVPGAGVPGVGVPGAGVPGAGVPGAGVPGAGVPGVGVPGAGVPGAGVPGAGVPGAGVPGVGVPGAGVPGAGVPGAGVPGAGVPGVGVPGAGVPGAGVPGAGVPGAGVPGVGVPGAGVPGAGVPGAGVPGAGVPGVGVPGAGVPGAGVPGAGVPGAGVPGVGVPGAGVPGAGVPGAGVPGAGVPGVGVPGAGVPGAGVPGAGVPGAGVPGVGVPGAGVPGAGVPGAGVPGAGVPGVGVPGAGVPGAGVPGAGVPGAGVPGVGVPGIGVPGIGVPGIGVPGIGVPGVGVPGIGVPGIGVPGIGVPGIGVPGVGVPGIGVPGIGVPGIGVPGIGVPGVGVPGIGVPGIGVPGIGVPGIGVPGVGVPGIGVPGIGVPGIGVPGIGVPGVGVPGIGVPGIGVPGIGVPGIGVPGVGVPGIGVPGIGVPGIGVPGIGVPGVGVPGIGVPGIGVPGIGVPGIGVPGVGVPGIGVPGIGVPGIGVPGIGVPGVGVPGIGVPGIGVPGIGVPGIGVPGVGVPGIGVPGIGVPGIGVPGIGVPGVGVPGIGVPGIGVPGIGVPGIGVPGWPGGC
The data set is described as follows: ELISA. (An ELISA detects its analyte on a solid surface through an enzyme-linked reagent.)

Data set [4] deals with T3, GPRP-P40-I60-C.
T3 chain: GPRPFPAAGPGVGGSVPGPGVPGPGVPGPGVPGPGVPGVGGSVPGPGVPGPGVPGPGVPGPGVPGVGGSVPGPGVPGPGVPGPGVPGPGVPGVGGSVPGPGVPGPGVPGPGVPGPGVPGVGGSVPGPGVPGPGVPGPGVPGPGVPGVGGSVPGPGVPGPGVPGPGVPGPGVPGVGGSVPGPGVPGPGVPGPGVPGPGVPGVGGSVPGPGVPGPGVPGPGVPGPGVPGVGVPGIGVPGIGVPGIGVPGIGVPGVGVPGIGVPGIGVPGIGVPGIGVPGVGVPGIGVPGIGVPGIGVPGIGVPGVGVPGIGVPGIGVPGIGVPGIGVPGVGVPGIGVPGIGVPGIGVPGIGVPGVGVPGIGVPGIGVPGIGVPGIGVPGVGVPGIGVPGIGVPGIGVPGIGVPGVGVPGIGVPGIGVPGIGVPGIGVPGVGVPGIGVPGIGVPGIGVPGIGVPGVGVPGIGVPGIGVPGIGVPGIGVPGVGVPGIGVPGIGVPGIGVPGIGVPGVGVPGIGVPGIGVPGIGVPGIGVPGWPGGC
The data set is described as follows: ELISA.

B1: GPRP-P40-I60 (designed binder)
chain: T1 chain with S3R
With B1, in data set [1], the binding result was “binds”.

B2: GPRP-A80-I60 (designed binder)
chain: GPRPFPAAGPGVGVPGAGVPGAGVPGAGVPGAGVPGVGVPGAGVPGAGVPGAGVPGAGVPGVGVPGAGVPGAGVPGAGVPGAGVPGVGVPGAGVPGAGVPGAGVPGAGVPGVGVPGAGVPGAGVPGAGVPGAGVPGVGVPGAGVPGAGVPGAGVPGAGVPGVGVPGAGVPGAGVPGAGVPGAGVPGVGVPGAGVPGAGVPGAGVPGAGVPGVGVPGAGVPGAGVPGAGVPGAGVPGVGVPGAGVPGAGVPGAGVPGAGVPGVGVPGAGVPGAGVPGAGVPGAGVPGVGVPGAGVPGAGVPGAGVPGAGVPGVGVPGAGVPGAGVPGAGVPGAGVPGVGVPGAGVPGAGVPGAGVPGAGVPGVGVPGAGVPGAGVPGAGVPGAGVPGVGVPGAGVPGAGVPGAGVPGAGVPGVGVPGIGVPGIGVPGIGVPGIGVPGVGVPGIGVPGIGVPGIGVPGIGVPGVGVPGIGVPGIGVPGIGVPGIGVPGVGVPGIGVPGIGVPGIGVPGIGVPGVGVPGIGVPGIGVPGIGVPGIGVPGVGVPGIGVPGIGVPGIGVPGIGVPGVGVPGIGVPGIGVPGIGVPGIGVPGVGVPGIGVPGIGVPGIGVPGIGVPGVGVPGIGVPGIGVPGIGVPGIGVPGVGVPGIGVPGIGVPGIGVPGIGVPGVGVPGIGVPGIGVPGIGVPGIGVPGVGVPGIGVPGIGVPGIGVPGIGVPGWP
As for B2, in data set [2], the binding result is recorded as “binds”.

B3: GPSP-A80-I60 (designed binder)
chain: B2 chain with R3S
For B3, the binding result in data set [1] and in data set [2] was “binds” throughout.

B4: fibrinogen, P02671 36-866; P02675 45-491; P02679 27-453 (complex)
chain 1: ADSGEGDFLAEGGGVRGPRVVERHQSACKDSDWPFCSDEDWNYKCPSGCRMKGLIDEVNQDFTNRINKLKNSLFEYQKNNKDSHSLTTNIMEILRGDFSSANNRDNTYNRVSEDLRSRIEVLKRKVIEKVQHIQLLQKNVRAQLVDMKRLEVDIDIKIRSCRGSCSRALAREVDLKDYEDQQKQLEQVIAKDLLPSRDRQHLPLIKMKPVPDLVPGNFKSQLQKVPPEWKALTDMPQMRMELERPGGNEITRGGSTSYGTGSETESPRNPSSAGSWNSGSSGPGSTGNRNPGSSGTGGTATWKPGSSGPGSTGSWNSGSSGTGSTGNQNPGSPRPGSTGTWNPGSSERGSAGHWTSESSVSGSTGQWHSESGSFRPDSPGSGNARPNNPDWGTFEEVSGNVSPGTRREYHTEKLVTSKGDKELRTGKEKVTSGSTTTTRRSCSKTVTKTVIGPDGHKEVTKEVVTSEDGSDCPEAMDLGTLSGIGTLDGFRHRHPDEAAFFDTASTGKTFPGFFSPMLGEFVSETESRGSESGIFTNTKESSSHHPGIAEFPSRGKSSSYSKQFTSSTSYNRGDSTFESKSYKMADEAGSEADHEGTHSTKRGHAKSRPV
chain 2: QGVNDNEEGFFSARGHRPLDKKREEAPSLRPAPPPISGGGYRARPAKAAATQKKVERKAPDAGGCLHADPDLGVLCPTGCQLQEALLQQERPIRNSVDELNNNVEAVSQTSSSSFQYMYLLKDLWQKRQKQVKDNENVVNEYSSELEKHQLYIDETVNSNIPTNLRVLRSILENLRSKIQKLESDVSAQMEYCRTPCTVSCNIPVVSGKECEEIIRKGGETSEMYLIQPDSSVKPYRVYCDMNTENGGWTVIQNRQDGSVDFGRKWDPYKQGFGNVATNTDGKNYCGLPGEYWLGNDKISQLTRMGPTELLIEMEDWKGDKVKAHYGGFTVQNEANKYQISVNKYRGTAGNALMDGASQLMGENRTMTIHNGMFFSTYDRDNDGWLTSDPRKQCSKEDGGGWWYNRCHAANPNGRYYWGGQYTWDMAKHGTDDGVVWMNWKGSWYSMRKMSMKIRPFFPQQ
chain 3: YVATRDNCCILDERFGSYCPTTCGIADFLSTYQTKVDKDLQSLEDILHQVENKTSEVKQLIKAIQLTYNPDESSKPNMIDAATLKSRKMLEEIMKYEASILTHDSSIRYLQEIYNSNNQKIVNLKEKVAQLEAQCQEPCKDTVQIHDITGKDCQDIANKGAKQSGLYFIKPLKANQQFLVYCEIDGSGNGWTVFQKRLDGSVDFKKNWIQYKEGFGHLSPTGTTEFWLGNEKIHLISTQSAIPYALRVELEDWNGRTSTADYAMFKVGPEADKYRLTYAYFAGGDAGDAFDGFDFGDDPSDKFFTSHNGMQFSTWDNDNDKFEGNCAEQDGSGWWMNKCHAGHLNGVYYQGGTYSKASTPNGYDNGIIWATWKTRWYSMKKTTMKIIPFNRLTIGEGQQHHLGGAKQAGDV
modifications: not checked
Consider B4, for which the % normalized signal (GPRPFPAC-coated wells = 100 %), saturated wells in data set [3] and in data set [4] was > 100% each time.
